Test results reported in patent US11433139B2, “Peptide vaccines against interleukin-31” (Zoetis Services LLC, priority 2018, dated 2022).

Legend:
[1] = test system: equine IL-31; assay: Biacore binding, single test concentration of antibody, equine IL-31 surface
Method: For the indirect ELISA, binding (ELISA OD) to wildtype feline IL-31 and a feline IL-31 15H05 mutant which had mutations in the monoclonal antibody 15H05 epitope region was assessed. To confirm binding, biacore analysis was performed using canine, feline, equine, human, the feline 15H05 mutant, and feline 11E12 mutant IL-31 proteins as surfaces and a single test concentration of antibody. The feline IL-31 11E12 mutant had mutations in the monoclonal antibody 11E12 epitope region.
For the indirect ELISA method, antibody binding to wildtype and feline IL-31 15H05 mutant proteins was assessed. […] In comparison, the 11E12 antibody bound to the wild-type feline IL-31 and its binding was not impacted by the mutations in the 15H05 epitope region as evidenced by the data in FIG. 4. To confirm binding, biacore analysis was performed using canine, feline, equine, human, feline 15H05 mutant, and feline 11E12 mutant IL-31 proteins as surfaces and a single test concentration of antibody. Similar to ELISA observations, all antibodies tested bound to wildtype feline IL-31. In agreement with the data described above in this section, mouse antibodies 11 E12 and 15H05 both bound to canine and feline IL-31 surfaces. […] From this group of nine fully canine antibodies, only ZIL1 and ZIL9 cross-reacted with equine IL-31. Of note, antibody 15H05 was the only one of all assayed herein that bound to canine, feline, and equine IL-31 indicating some level of epitope conservation across the three species. In contrast, none of the antibodies described herein bound to human IL-31. Additional biacore surfaces were used to verify ELISA observations showing differential binding of antibodies to wildtype feline IL-31 and two proteins with mutations in the 15H05 (15H05 mutant) or 11 E12 (11E12 mutant) epitopes. […] Differing results can be attributed to differences in the two assay methodologies.

[2] = test system: feline IL-31; assay: IL-31 induced pruritus model in cats, antibody pre-bound to feline IL-31; format: in vivo, cat
Method: To test the preliminary efficacy of mouse: feline 11E12 chimera, mouse: feline 15H05 chimera, and felinized 11 E12 (Feline 11E12 1.1), an IL-31 induced pruritus model in cats was developed. Following an intravenous dose of 0.5 μg/kg feline IL-31 (SEQ ID NO: 159; Feline_IL-31_E_coli), the corresponding nucleotide sequence for which is (SEQ ID NO: 160; Feline_IL-31_E_coli), cats will portray transient pruritic behavior that includes (but is not limited to) licking, chewing, scratching, and head or body shaking. Rubbing up against the cage was not considered a pruritic activity. Pruritic observations take place by a trained investigator for 30 minutes prior to administration of the IL-31 protein and for 1 hour following. For this study, a baseline challenge with feline IL-31 was performed up to 1 month prior to dosing with antibody. On day zero, a 0.5 mg/kg antibody dose was combined with 0.5 μg/kg of feline IL-31 at room temperature for 60 minutes prior to injecting the pre-bound complex into each animal. A “no mAb” control was included for a control. The dose of mAb represents a gross molar excess of antibody to cytokine. Pruritic activity was monitored as described on days 0, 7, and 21.
Target sequence in this assay (as listed by the source): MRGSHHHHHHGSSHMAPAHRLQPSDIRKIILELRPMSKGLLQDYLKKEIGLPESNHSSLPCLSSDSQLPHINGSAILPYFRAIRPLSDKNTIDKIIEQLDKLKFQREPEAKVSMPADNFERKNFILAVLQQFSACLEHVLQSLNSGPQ

[3] = test system: feline IL-31; assay: Inhibition of feline IL-31 induced pSTAT3 signaling in feline FCWF4 macrophage-like cells; format: cell-based; conditions: for potency (IC50) against feline IL-31 in feline FCWF4 cells: 0.2 μg/mL feline IL-31, pSTAT3, FCWF4 cells (FIG. 3)
Method: (§1) To identify candidates with inhibitory activity, antibodies were assessed for their ability to affect IL-31-mediated STAT3 phosphorylation in either a canine or feline cell-based assay. STAT3 phosphorylation was determined in canine DH-82 (ATCC® CRL-10389™) or feline FCWF4 macrophage-like cells (ATCC CRL-2787). DH82 and FCWF4 cells were primed with canine interferon gamma (R&D Systems, Minneapolis, Minn.) at 10 ng/mL for 24 hours or feline interferon gamma (R&D Systems, Minneapolis, Minn.) at 125 ng/mL for 96 hours, respectively, to increase receptor expression. Both cell types were serum starved for 2 hours prior to IL-31 and mAb treatment. Using two independent methods, all candidate mAbs were evaluated for their ability to inhibit either 1 μg/mL canine or 0.2 μg/mL feline IL-31 induced STAT3 phosphorylation. […] To ensure complex formation, a one hour co-incubation of mAb and IL-31 cytokine prior to cell stimulation was completed. IL-31 cell stimulation was carried out for five minutes. STAT3 phosphorylation was measured using AlphaLISA SureFire ULTRA™ technology (Perkin Elmer, Waltham, Mass.). In the case where antibody concentration and purity are unknown, hybridoma supernatants were qualitatively measured for their ability to inhibit STAT3 phosphorylation following a 1 hour co-incubation with […] IL-31. The potency of individual monoclonal antibodies defined by their ability to inhibit IL-31 mediated STAT3 phosphorylation in these assays was considered the key selection criteria for further advancement of select antibodies. The term potency refers to the IC50 value calculated from these assays and is the concentration of the antibody where signaling induced by IL-31 is reduced to one half its maximal value.

[4] = target: T1, canine IL-31 (Canis lupus familiaris, UniProt A0A8I3S3D1); assay: Inhibition of canine IL-31 induced pSTAT3 signaling in canine DH-82 and feline FCWF4 cells; format: cell-based; conditions: canine IL-31; canine and feline cell types, cell type of the values not specified
T1 construct: made in house; host or cells: CHO cells (CHROMOS ACE system)
T1 sequence (A0A8I3S3D1 24-159): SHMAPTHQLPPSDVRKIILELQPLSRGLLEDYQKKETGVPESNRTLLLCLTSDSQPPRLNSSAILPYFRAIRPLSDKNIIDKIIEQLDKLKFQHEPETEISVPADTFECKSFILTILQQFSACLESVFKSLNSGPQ
Method: as §1

[5] = target: feline IL-31; assay: Affinity of anti-IL-31 antibodies by surface plasmon resonance (Biacore), feline IL-31 surface; format: binding; conditions: IL-31 conjugated to the surface (FIG. 2)
Method: (§2) The affinity with which candidate mAbs bind canine and feline IL-31 was determined using surface plasmon resonance (SPR) on a Biacore system (Biocore Life Sciences (GE Healthcare), Uppsala, Sweden). To avoid affinity differences associated with differential surface preparation that can occur when immobilizing antibodies to surfaces; a strategy was employed where IL-31 was directly conjugated to the surface. Immobilization was obtained by amine coupling 5 μg/mL IL-31 using N-hydroxysuccinimide (NHS)/1-Ethyl-3-(3-dimethylaminopropyl) carbodiimide (EDC) chemistry. Chips were quenched with ethanolamine and the affinity with which all candidate mAbs bound to the immobilized IL-31 was evaluated. All curves were fit to a 1:1 model. Affinity constants (KD) less than 1×10^−11M (1E-11 M) are below the lower limit of quantitation of detection for the instrument. Results for affinity measurements are described herein.
Target sequence in this assay (as listed by the source): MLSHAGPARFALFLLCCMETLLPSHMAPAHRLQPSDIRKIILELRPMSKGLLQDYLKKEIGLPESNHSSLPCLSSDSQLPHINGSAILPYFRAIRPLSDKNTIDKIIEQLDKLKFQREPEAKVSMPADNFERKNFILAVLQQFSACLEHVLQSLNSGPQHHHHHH

[6] = target: canine IL-31; assay: Affinity of anti-IL-31 antibodies by surface plasmon resonance (Biacore), canine IL-31 surface; format: binding; conditions: IL-31 conjugated to the surface (FIG. 2)
canine IL-31, sequence (as listed by the source): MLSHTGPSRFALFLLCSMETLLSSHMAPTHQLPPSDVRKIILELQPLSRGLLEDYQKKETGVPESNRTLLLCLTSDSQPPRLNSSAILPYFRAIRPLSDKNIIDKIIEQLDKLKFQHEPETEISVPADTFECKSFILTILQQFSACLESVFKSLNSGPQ
Method: as §2

[7] = test system: feline IL-31; assay: Inhibition of feline IL-31 induced pSTAT3 signaling in canine DH-82 cells; format: cell-based; conditions: feline IL-31, pSTAT3, canine DH82 cells (FIG. 3)
Method: as §1
Target sequence in this assay (as listed by the source): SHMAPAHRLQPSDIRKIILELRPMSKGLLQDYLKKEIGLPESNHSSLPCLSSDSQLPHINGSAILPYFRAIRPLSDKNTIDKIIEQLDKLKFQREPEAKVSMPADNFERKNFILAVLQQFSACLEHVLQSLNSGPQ

[8] = 0.5 mg/kg antibody pre-bound with 0.5 μg/kg feline IL-31, days 0, 7, 21

equine IL-31, sequence (as listed by the source): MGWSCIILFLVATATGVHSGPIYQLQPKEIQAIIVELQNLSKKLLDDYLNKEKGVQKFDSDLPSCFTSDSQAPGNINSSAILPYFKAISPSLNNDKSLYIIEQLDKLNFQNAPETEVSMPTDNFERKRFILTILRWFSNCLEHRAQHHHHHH

Molecule | binding to equine IL-31 (Biacore) [1] | pruritus scores compared to placebo control [2, 8] | fold increased IC50 relative to mouse: feline 11E12 chimera ([3]; feline IL-31 induced pSTAT3 signaling in feline FCWF4 cells) | IC50 against canine IL-31 [4] [µg/mL] | affinity (KD) to feline IL-31 [5] | affinity (KD) to canine IL-31 [6] | pruritus scores compared to placebo control ([2]; 0.5 mg/kg antibody pre-bound with 0.5 μg/kg feline IL-31, days 0, 7, 21, 0.5 mg/kg) | pruritus scores compared to placebo control ([2]; 0.5 mg/kg antibody pre-bound with 0.5 μg/kg feline IL-31, days 0, 7, 21, listed as feline 11E12 1.1, 0.5 mg/kg) | potency (IC50) against feline IL-31 in canine DH82 cells [7] | potency (IC50) against feline IL-31 in feline FCWF4 cells [3] | potency (IC50) against feline IL-31 in feline FCWF4 cells ([3]; listed as Felinized 11E12 1.1)
ZIL9: fully canine anti IL-31 antibody, VH SEQ ID NO: 83, VL SEQ ID NO: 85 (antibody, listed as Canis familiaris, V domains shown) VH: EVQLVESGGDLVKPPGSLRLSCVASGFTFSSYDMTWVRQAPGKGLQWVADVNSGGTGTAYAVAVKGRFTISRDNAKKTLYLQMNSLRAEDTAVYYCAKLGVRDGLSVWGQGTLVTVSS VL: SSVLTQPPSVSVSLGQTATISCSGESLNEYYTQWFQQKAGQAPVLVIYRDTERPSGIPDRFSGSSSGNTHTLTISGARAEDEADYYCESAVDTGTLVFGGGTHLAVL | cross-reacted | – | – | – | – | – | – | – | – | – | –
mouse: feline 15H05 chimera: mouse 15H05 variable regions on feline IgG constant regions (antibody) heavy: QVQLQQSAAELARPGASVKMSCKTSGYTFTSYTIHWIKQRPGQGLEWIGNINPTSGYTENNQRFKDKTTLTVDRSSNTAYLQLHSLTSEDSAVYFCARWGFKYDGEWSFDVWGAGTTVTVSSASTTAPSVFPLAPSCGTTSGATVALACLVLGYFPEPVTVSWNSGALTSGVHTFPAVLQASGLYSLSSMVTVPSSRWLSDTFTCNVAHPPSNTKVDKTVRKTDHPPGPKPCDCPKCPPPEAAGAPSIFIFPPKPKDTLSISRTPEVTCLVVDLGPDDSDVQITWFVDNTQVYTAKTSPREEQFNSTYRVVSVLPILHQDWLKGKEFKCKVNSKSLPSPIERTISKAKGQPHEPQVYVLPPAQEELSRNKVSVTCLIKSFHPPDIAVEWEITGQPEPENNYRTTPPQLDSDGTYFVYSKLSVDRSHWQRGNTYTCSVSHEALHSHHTQKSLTQSPGK light: DIQMNQSPSSLSASLGDTITVTCRASQGISIWLSWYQQKPGNIPKVLINKASNLHIGVPPRFSGSGSGTHFTLTITSLQPEDIATYYCLQSQTYPLTFGGGTKLEINRSDAQPSVFLFQPSLDELHTGSASIVCILNDFYPKEVNVKWKVDGVVQNKGIQESTTEQNSKDSTYSLSSTLTMSSTEYQSHEKFSCEVTHKSLASTLVKSFQRSECQRE | – | significant improvement (p<0.05) | approximately 2 fold | 28.61 | lost some affinity | lost some affinity | – | – | – | – | –
mouse: feline 11E12 chimera: mouse 11E12 variable regions on feline IgG constant regions (antibody) heavy: QVQLQQSGAELVKPGASVKLSCKASGYTFKYYDINWVRQRPEQGLEWIGWIFPGDGGTKYNETFKGKATLTTDKSSSTAYMQLSRLTSEDSAVYFCARGGTSVIRDAMDYWGQGTSVTVSSASTTAPSVFPLAPSCGTTSGATVALACLVLGYFPEPVTVSWNSGALTSGVHTFPAVLQASGLYSLSSMVTVPSSRWLSDTFTCNVAHPPSNTKVDKTVRKTDHPPGPKPCDCPKCPPPEAAGAPSIFIFPPKPKDTLSISRTPEVTCLVVDLGPDDSDVQITWFVDNTQVYTAKTSPREEQFNSTYRVVSVLPILHQDWLKGKEFKCKVNSKSLPSPIERTISKAKGQPHEPQVYVLPPAQEELSRNKVSVTCLIKSFHPPDIAVEWEITGQPEPENNYRTTPPQLDSDGTYFVYSKLSVDRSHWQRGNTYTCSVSHEALHSHHTQKSLTQSPGK light: DIVLTQSPASLAVSLGQRATISCRASESVDNYGISFMHWYQQKPGQPPKLLIYRASNLESGIPARFSGSGSRTDFTLTINPVETDDVATYYCQQSNKDPLTFGAGTKLELKRSDAQPSVFLFQPSLDELHTGSASIVCILNDFYPKEVNVKWKVDGVVQNKGIQESTTEQNSKDSTYSLSSTLTMSSTEYQSHEKFSCEVTHKSLASTLVKSFQRSECQRE | – | did not achieve a significant reduction in pruritus at any timepoint | – | – | slightly superior | slightly superior | – | – | – | – | –
Feline 11E12 1.1: felinized 11E12, FEL_11E12_VH1 paired with FEL_11E12_VL1 (antibody, V domains shown) VH: QVLLVQSGAEVKKPGASVKIFCKASGYSFTYYDINWLRQAPEQGLEWMGWIFPGDGGTKYNETFKGRLTLTADTSTNTVYMELSSLRSADTAMYYCARGGTSVIRDAMDYWGQGALVTVSS VL: EIQMTQSPSSLSASPGDRVTITCRASESVDNYGISFMHWYQQKPGKVPKLLIYRASNLESGVPSRFSGSGSGTDFTLTISSLEPEDAATYYCQQSNKDPLTFGQGT | – | – | – | – | loss of affinity | loss of affinity | did not reduce pruritus at day zero | lack of efficacy | loss of potency | loss of potency | approximately a two-fold decrease in potency
